The labels stand for the following.
T1: Myc-Ube2G2, co-expressed in HEK 293T cells (human (100% identical to mouse MmUbc7), UniProt P60604 1-165)
T1 construct: Plasmid described in Tiwari and Weissman, 2001; also called Myc-MmUbc7; myc-tagged MmUbc7/Ube2G2
T1 sequence: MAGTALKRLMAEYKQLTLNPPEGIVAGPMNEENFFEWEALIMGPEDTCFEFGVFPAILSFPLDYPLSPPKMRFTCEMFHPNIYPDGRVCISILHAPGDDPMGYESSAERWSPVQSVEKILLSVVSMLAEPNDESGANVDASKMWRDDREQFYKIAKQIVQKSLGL

B1: GST fusion of the cytoplasmic domain of yeast Cue1p (Cue1p 24-203) (other, UniProt P38428 24-203, looked up)
chain: QSNQHPSAQRLSATGVNAHGRPQGSTQNALRRTGRVNGGHPVTTQMVETVQNLAPNLHPEQIRYSLENTGSVEETVERYLRGDEFSFPPGFEPSRAPMGANAAVDNNAAGGGEFNDPRKKNMICAENLLDKFHVDLNEDMSNLSFKDLDIEERKRLLVWQARKNLETKLQSDKDLQSLLT
notes: range 24-203; also called GST-Cue1p 24-203; not shown: glutathione S-transferase (GST) fusion partner, N-terminal (pGEX4T-1)
B2: GST-AO7 (92 to 259), the RING finger and surrounding regions of the E3 AO7 (other)
chain: QIHKISQALGHVAKEGLGTAMLYELIEKGKEILTDNNIPHGQCVICLYGFQEKEAFTKTPCYHYFHCHCLARYIQHMEQELTTQEQEQERQHVVTKQKAVGVQCPVCREPLVYDLASLKAAPEPQQPMELYQPSAESLRQQEELKLLYQRQQEKGGIIDLEAERNRYF
notes: range 92-259; also called A07; not shown: glutathione S-transferase (GST) fusion partner
B3: full length gp78 with both Cue domain mutations (gp78Cue-m1, 2) (enzyme)
chain: MPLLFLERFPWPSLRTYTGLSGLALLGTIISAYRALSQPEAGPGEPDQLTASLQPEPPAPARPSAGGPRARDVAQYLLSDSLFVWVLVNTACCVLMLVAKLIQCIVFGPLRVSERQHLKDKFWNFIFYKFIFIFGVLNVQTVEEVVMWCLWFAGLVFLHLMVQLCKDRFEYLSFSPTTPMSSHGRVLSLLVAMLLSCCGLAAVCSITGYTHGMHTLAFMAAESLLVTVRTAHVILRYVIHLWDLNHEGTWEGKGTYVYYTDFVMELTLLSLDLMHHIHMLLFGNIWLSMASLVIFMQLRYLFHEVQRRIRRHKNYLRVVGNMEARFAVATPEELAVNNDDCAICWDSMQAARKLPCGHLFHNSCLRSWLEQDTSCPTCRMSLNIADNNRVREEHQGENLDENLVPVAAAEGRPRLNQHNHFFHFDGSRIASWLPSFSVEVMHTTNILGITQASNSQLNAMAHQIQEGGRQVPYHLRLQVDQLTRSVEITTDNILEGRIQVPFPTQRSDSIRPALNSPVERPSSDQEEGETSAQTERVPLDLSPRLEETLDFGEVEVEPSEVEDFEARGSRFSKSADERQRMLVQRKDELLQQARKRFLNKSSEDDAASESFLPLEGASSDPVTLRRRMLAAAAERRLQKQQTS
notes: Full length, expressed in cells; also called Cue12M
B4: full length gp78 with the E2-m2 mutation (gp78E2-m2) (enzyme)
chain: MPLLFLERFPWPSLRTYTGLSGLALLGTIISAYRALSQPEAGPGEPDQLTASLQPEPPAPARPSAGGPRARDVAQYLLSDSLFVWVLVNTACCVLMLVAKLIQCIVFGPLRVSERQHLKDKFWNFIFYKFIFIFGVLNVQTVEEVVMWCLWFAGLVFLHLMVQLCKDRFEYLSFSPTTPMSSHGRVLSLLVAMLLSCCGLAAVCSITGYTHGMHTLAFMAAESLLVTVRTAHVILRYVIHLWDLNHEGTWEGKGTYVYYTDFVMELTLLSLDLMHHIHMLLFGNIWLSMASLVIFMQLRYLFHEVQRRIRRHKNYLRVVGNMEARFAVATPEELAVNNDDCAICWDSMQAARKLPCGHLFHNSCLRSWLEQDTSCPTCRMSLNIADNNRVREEHQGENLDENLVPVAAAEGRPRLNQHNHFFHFDGSRIASWLPSFSVEVMHTTNILGITQASNSQLNAMAHQIQEMFPQVPYHLVLQDLQLTRSVEITTDNILEGRIQVPFPTQRSDSIRPALNSPVERPSSDQEEGETSAQTERVPLDLSPRLEETLDFGEVEVEPSEVEDFEARGSRFSKSADERAAAGGGRKDELLQQARKRFLNKSSEDDAASESFLPLEGASSDPVTLRRRMLAAAAERRLQKQQTS
notes: Full length, expressed in cells; also called ΔB in the context of the full length gp78
B5: yeast Ubc7p, in vitro translated and labelled with 35S-methionine (enzyme, UniProt Q02159 1-165, looked up)
chain: MSKTAQKRLLKELQQLIKDSPPGIVAGPKSENNIFIWDCLIQGPPDTPYADGVFNAKLEFPKDYPLSPPKLTFTPSILHPNIYPNGEVCISILHSPGDDPNMYELAEERWSPVQSVEKILLSVMSMLSEPNIESGANIDACILWRDNRPEFERQVKLSILKSLGF
modifications: 35S-methionine label
B6: GST fusion of the gp78 cytoplasmic tail beginning after the RING finger (residues 429-643 of SEQ ID NO:2) (other)
chain: IASWLPSFSVEVMHTTNILGITQASNSQLNAMAHQIQEMFPQVPYHLVLQDLQLTRSVEITTDNILEGRIQVPFPTQRSDSIRPALNSPVERPSSDQEEGETSAQTERVPLDLSPRLEETLDFGEVEVEPSEVEDFEARGSRFSKSADERQRMLVQRKDELLQQARKRFLNKSSEDDAASESFLPLEGASSDPVTLRRRMLAAAAERRLQKQQTS
notes: also called gp78CΔR; gp78CAR; not shown: GST carrier and the pGEX4T-1 linker (N-terminal)
B7: endogenous Ube2g1 of HEK 293T cells (enzyme, human, UniProt P62253 2-170, looked up)
chain: TELQSALLLRRQLAELNKNPVEGFSAGLIDDNDLYRWEVLIIGPPDTLYEGGVFKAHLTFPKDYPLRPPKMKFITEIWHPNVDKNGDVCISILHEPGEDKYGYEKPEERWLPIHTVETIMISVISMLADPNGDSPANVDAAKEWREDRNGEFKRKVARCVRKSQETAFE
B8: Ube2G1, in vitro translated and labelled with 35S-methionine (enzyme, rat, UniProt P62255 1-170, looked up)
chain: MTELQSALLLRRQLAELNKNPVEGFSAGLIDDNDLYRWEVLIIGPPDTLYEGGVFKAHLTFPKDYPLRPPKMKFITEIWHPNVDKNGDVCISILHEPGEDKYGYEKPEERWLPIHTVETIMISVISMLADPNGDSPANVDAAKEWREDRNGEFKRKVARCVRKSQETAFE
modifications: 35S-methionine label
notes: also called rat Ubc7 (Ube2g1)
B9: GST fusion of the entire gp78 cytoplasmic tail (gp78C; residues 309-643 of SEQ ID NO:2) (other)
chain: IRRHKNYLRVVGNMEARFAVATPEELAVNNDDCAICWDSMQAARKLPCGHLFHNSCLRSWLEQDTSCPTCRMSLNIADNNRVREEHQGENLDENLVPVAAAEGRPRLNQHNHFFHFDGSRIASWLPSFSVEVMHTTNILGITQASNSQLNAMAHQIQEMFPQVPYHLVLQDLQLTRSVEITTDNILEGRIQVPFPTQRSDSIRPALNSPVERPSSDQEEGETSAQTERVPLDLSPRLEETLDFGEVEVEPSEVEDFEARGSRFSKSADERQRMLVQRKDELLQQARKRFLNKSSEDDAASESFLPLEGASSDPVTLRRRMLAAAAERRLQKQQTS
notes: also called gp78 cytoplasmic domain; not shown: glutathione S-transferase (GST) fusion partner, N-terminal (pGEX type vector)
B10: GST-gp78CCue-m1: complete C-terminal region of gp78 with MFP to GGR mutation of residues 467 to 469 (other)
chain: B9 chain with M159G, F160G, P161R
notes: not shown: glutathione S-transferase (GST) fusion partner, N-terminal (pGEX type vector)
B11: Ube2G2/MmUbc7, in vitro translated and labelled with 35S-methionine (enzyme)
chain: T1 sequence
modifications: 35S-methionine label
notes: Translated in wheat germ or rabbit reticulocyte lysate; also called in vitro translated Ube2G2
B12: GST-gp78Cuem2: gp78 C-terminal region with VLQDL to RLQVD mutation of residues 476 to 480 (other)
chain: B9 chain with V168R, D171V, L172D
notes: as for B10
B13: GST-gp78CCue-m1, 2: gp78 C-terminal region with both sets of Cue domain mutations (other)
chain: B9 chain with M159G, F160G, P161R, V168R, D171V, L172D
notes: as for B10

Where a chain is given by its changes, count along the chain named.

For test [1], the target named is T2, lysine 48-linked (K48) tetra-ubiquitin (UniProt P0CG48 1-76, four ubiquitins joined by lysine 48 isopeptide links).
T2 construct: the monomer is its first 76 residues
Nature of the test: GST pull-down, anti-ubiquitin immunoblot. On the technique in general: A western blot detects proteins with antibodies after separation by electrophoresis.

The target of test [2] is T3, UbcH5B, in vitro translated and labelled with 35S-methionine (human, UniProt P62837 1-147). Kind of test: GST pull-down, E2 in vitro translated in wheat germ.
Test [3] has as its target B11. Kind of test: GST pull-down, E2 translated in wheat germ and labelled with 35S-Met, equal counts.
In test [4] the target is B5. Described as above.
For test [5], the target named is T3, UbcH5B, in vitro translated and …. The description is as above.
The target of test [6] is T1, Myc-Ube2G2, co-expressed in HEK 293T …. Nature of the test: anti-Myc immunoprecipitation from co-transfected cells, anti-gp78 immunoblot.
Test [7] concerns the target B1. Nature of the test: GST pull-down, E2 in vitro translated in wheat germ.
Test [8] has as its target B9. The description is as above.
Test [9] concerns the target B5. Described as above.
Test [10] has as its target T4, N-terminal GFP fusion of gp78 residues 574-611 (GFP-574-611) (human, UniProt P42212 1-238 = GFP).
T4 construct: the vector encodes the enhanced variant; also called G2BD
Nature of the test: co-immunoprecipitation with GFP fusion from HEK 293T cells.

Test [11] deals with B9. Kind of test: GST pull-down.

For the molecule B1, the binding result in test [1] is “no binding (tested: 1 ug K48 tetra-ubiquitin)”; in test [2] it was “no binding”. Further, the “amount bound (% of input)” value in test [3] and in [4] was ~10 % of input each time. As for B2, in [5], the “amount bound (% of input)” value was ~10 % of input.

In the case of B3, the binding result in test [6] is listed as “binds”. Regarding B4, the binding result in test [6] is listed as “no binding”. As to B5, the binding result is reported as “binds” in test [7] and “no binding” in test [8]. As for B6, in test [9], the binding result is “no binding”. The “amount bound (% of input)” value in test [3] is ~10 % of input. B7: the binding result in test [10] is reported as “no binding”. For B8, the binding result in test [7] and in test [8] was “no binding” throughout.

As for B9, the “amount bound (% of input)” value in test [3] is ~10 % of input. As to B10, the binding result in test [1] is “no binding (tested: 1 ug K48 tetra-ubiquitin)”.

As for B11, the binding result in test [11] was “binds”.

Consider B12, for which the binding result in [1] is recorded as “no binding (tested: 1 ug K48 tetra-ubiquitin)”.

For B13, in test [1], the binding result was “no binding (tested: 1 ug K48 tetra-ubiquitin)”.

(Values after patent publication US8420776 (US Dept. of Health and Human Services, dated 2013).)
